In PMC11205783, “HigA2 (Rv2021c) Is a Transcriptional Regulator with Multiple Regulatory Targets in Mycobacterium tuberculosis”:

What follows are binders tested against T1, HigA2 (Mycobacterium tuberculosis H37Rv, UniProt O53467 1-101) (assay: EMSA; EMSA: 20 mM Tris-HCl, 150 mM NaCl, pH 8.0, 37 °C, 5 min, HigA2 1 uM (titrated in Fig 4); agarose or native PAGE. Pull-down: streptavidin beads, 4 °C, PBS washes). Settings: protein: recombinant; tags: C-terminal 6xHis; chain copies: 2.
T1 sequence: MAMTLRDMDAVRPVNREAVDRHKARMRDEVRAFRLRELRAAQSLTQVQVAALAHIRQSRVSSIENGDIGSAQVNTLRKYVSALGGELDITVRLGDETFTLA

Row | Binder | binding result
1 | seq6 m5 (dsDNA) DNA 1: CTGCTCAAAGATCGACTAGTATATCACAGGTCCGTGATATGACGTATACCTTTGGTGCA DNA 2: TGCACCAAAGGTATACGTCATATCACGGACCTGTGATATACTAGTCGATCTTTGAGCAG | binds
2 | seq6 m4 (dsDNA) DNA 1: CGCTGCTCTTACCCGGAGGAATATCACAGGTCCGTGATATCGCGTATCGCGCTACTCTG DNA 2: CAGAGTAGCGCGATACGCGATATCACGGACCTGTGATATTCCTCCGGGTAAGAGCAGCG | binds
3 | seq6 m6 (dsDNA) DNA 1: CGCTGCTCTTACCCGGAGGAGCATCACCCTTGTGTGATCACGCGTATCGCGCTACTCTG DNA 2: CAGAGTAGCGCGATACGCGTGATCACACAAGGGTGATGCTCCTCCGGGTAAGAGCAGCG | binds
